Data published in the Immune Epitope Database (IEDB).
Each block holds one sequence with its values, some of them ahead of it.

What was measured:
HLA-B*07:02 = experiment: IEDB peptide-MHC binding, purified MHC/direct/fluorescence; filed as Kd, often an IC50 or EC50 that approximates it; ≥ and ≤ were set here for values at or beyond the usual limits of such assays
HLA-A*01:01 = experiment: as above
HLA-A*02:01 [1] = experiment: IEDB peptide-MHC binding, purified MHC/competitive/fluorescence; ≥ and ≤ were set here for values at or beyond the usual limits of such assays
HLA-A*24:02 = experiment: IEDB peptide-MHC binding, purified MHC/competitive/radioactivity; filed as Kd, often an IC50 or EC50 that approximates it; ≥ and ≤ were set here for values at or beyond the usual limits of such assays; conditions: source organism: Dengue virus 1 Brazil/97-11/1997
HLA-A*26:01 = experiment: as above
HLA-B*51:01 = experiment: as above
HLA-A*11:01 = experiment: IEDB peptide-MHC binding, purified MHC/direct/fluorescence; filed as Kd, often an IC50 or EC50 that approximates it; ≥ and ≤ were set here for values at or beyond the usual limits of such assays; conditions: source organism: SARS-CoV1
HLA-B*27:05 = experiment: as above
HLA-B*58:01 = experiment: as above
HLA-A*02:03 = experiment: IEDB peptide-MHC binding, purified MHC/competitive/radioactivity; filed as Kd, often an IC50 or EC50 that approximates it; ≥ and ≤ were set here for values at or beyond the usual limits of such assays
HLA-A*02:06 = experiment: as above
HLA-A*02:02 = experiment: as above
HLA-B*46:01 = experiment: IEDB peptide-MHC binding, purified MHC/direct/fluorescence; filed as Kd, often an IC50 or EC50 that approximates it; ≥ and ≤ were set here for values at or beyond the usual limits of such assays; conditions: source organism: Yellow fever virus
HLA-A*69:01 = experiment: as above
HLA-A*02:01 [2] = experiment: as above
HLA-B*15:01 = experiment: as above
HLA-A*30:02 = experiment: IEDB peptide-MHC binding, purified MHC/competitive/radioactivity; filed as Kd, often an IC50 or EC50 that approximates it; ≥ and ≤ were set here for values at or beyond the usual limits of such assays
[3] = source organism: Sudan ebolavirus
[4] = source organism: Dengue virus 2 Jamaica/1409/1983
[5] = source organism: Dengue virus 3 Martinique/1243/1999
[6] = source organism: SARS coronavirus Tor2
[7] = source organism: Zaire ebolavirus
[8] = source organism: Vaccinia virus WR
[9] = source organism: Mycobacterium tuberculosis
[10] = source organism: Mammarenavirus juninense
[11] = source organism: Human betaherpesvirus 6B
[12] = source organism: Bacillus anthracis
[13] = source organism: Haemophilus influenzae
[14] = source organism: Dengue virus 1 Brazil/97-11/1997
[15] = source organism: Entamoeba histolytica
[16] = source organism: Mammarenavirus guanaritoense

Kd (HLA-B*07:02; source organism: Homo sapiens): 145 nM
Sequence: APRTLVLLL

Sequence: ASLLRRWPK
Kd (HLA-A*01:01; source organism: Vibrio cholerae): ≥ 20000 nM

Sequence: ASTVIYRGV
IC50 (HLA-A*02:01 [1]; [3]): 7440 nM

Sequence: DFPGKTVWF
Kd (HLA-A*24:02): 8800 nM

Sequence: ELCEDTITY
Kd (HLA-A*26:01; [4]): 754 nM

Sequence: EPPFGESNI
Kd (HLA-B*51:01; [5]): 11200 nM

Sequence: ERSDKSYEH
Kd (HLA-A*11:01): 16800 nM
Kd (HLA-B*27:05; source organism: SARS-CoV1): 8450 nM
Kd (HLA-B*58:01; source organism: SARS-CoV1): 1840 nM

Sequence: ETLLLLGLMI
Kd (HLA-A*26:01; [5]): ≥ 54400 nM

Sequence: FDFCEGTTVV
Kd (HLA-B*51:01; [4]): 2650 nM

Sequence: FLIVAALVFL
Kd (HLA-A*02:03; [6]): 162 nM
Kd (HLA-A*02:06; [6]): 3.64 nM
Kd (HLA-A*02:02; [6]): 3.02 nM

Sequence: FMAILQHHQ
IC50 (HLA-A*02:01 [1]; [7]): 1080 nM

Sequence: FTSDYPFYV
Kd (HLA-A*02:03; [8]): 3.91 nM
Kd (HLA-A*02:06; [8]): 3.58 nM
Kd (HLA-A*02:02; [8]): 2.07 nM

Sequence: FTYASALWEI
Kd (HLA-A*02:03; [6]): 6.05 nM
Kd (HLA-A*02:06; [6]): 2.54 nM
Kd (HLA-A*02:02; [6]): 1.6 nM

Sequence: FVKKMLPKII
Kd (HLA-A*02:03; [8]): 1140 nM
Kd (HLA-A*02:06; [8]): 6710 nM
Kd (HLA-A*02:02; [8]): 11100 nM

Sequence: GGFSTLDKI
IC50 (HLA-A*02:01 [1]; source organism: Variola virus): ≥ 124000 nM

Sequence: GMMGGLWKY
Kd (HLA-B*46:01): ≥ 20000 nM

Sequence: GPRTRGYAI
Kd (HLA-B*07:02; [9]): 9 nM

Sequence: GRSCTEETF
Kd (HLA-B*27:05; [10]): ≥ 20000 nM

Sequence: GTGPCAGDF
IC50 (HLA-A*02:01 [1]; [7]): ≥ 512000 nM

Sequence: HTKFWISDNT
Kd (HLA-A*02:03; [8]): ≥ 60200 nM
Kd (HLA-A*02:06; [8]): ≥ 69800 nM
Kd (HLA-A*02:02; [8]): ≥ 21500 nM

Sequence: ICDDVLSKY
Kd (HLA-A*69:01; [11]): 2690 nM
Kd (HLA-A*01:01; [11]): 3180 nM

Sequence: ILNGGLGNA
Kd (HLA-A*02:01 [2]; [12]): 317 nM
Kd (HLA-A*69:01; [12]): ≥ 20000 nM

Sequence: ILRNYLRLYI
Kd (HLA-A*02:03; [8]): 0.895 nM
Kd (HLA-A*02:06; [8]): 65 nM
Kd (HLA-A*02:02; [8]): 0.394 nM

Kd (HLA-A*02:01 [2]; [13]): 10200 nM
Kd (HLA-B*15:01; [13]): 119 nM
Kd (HLA-B*58:01; [13]): 92.8 nM
Sequence: ILYDTGSSW

Sequence: IQYRQQLELA
Kd (HLA-A*02:03; [8]): 8470 nM
Kd (HLA-A*02:06; [8]): ≥ 69800 nM
Kd (HLA-A*02:02; [8]): 4320 nM

Sequence: ISTIGIRPS
IC50 (HLA-A*02:01 [1]; [3]): ≥ 116000 nM

Sequence: ITNILGGVL
Kd (HLA-A*02:03; [8]): 2440 nM
Kd (HLA-A*02:06; [8]): ≥ 32400 nM
Kd (HLA-A*02:02; [8]): 7380 nM

Sequence: ITPNNLNKI
Kd (HLA-A*02:03; [8]): 876 nM
Kd (HLA-A*02:06; [8]): 409 nM
Kd (HLA-A*02:02; [8]): 14600 nM

Sequence: IVAAVIIMAI
Kd (HLA-A*02:03; [8]): 2610 nM
Kd (HLA-A*02:06; [8]): 4510 nM
Kd (HLA-A*02:02; [8]): 727 nM

Sequence: IVDKFGKNHI
Kd (HLA-A*02:03; [8]): 5080 nM
Kd (HLA-A*02:06; [8]): 8330 nM
Kd (HLA-A*02:02; [8]): 2930 nM

Sequence: IVFATAARY
Kd (HLA-B*15:01; [9]): 161 nM

Sequence: IVTFINDYA
Kd (HLA-A*02:03; [8]): 2960 nM
Kd (HLA-A*02:06; [8]): 1150 nM
Kd (HLA-A*02:02; [8]): 140 nM

Sequence: IWLKLRDSY
Kd (HLA-A*30:02; [14]): 673 nM

Sequence: KIILFLTLI
Kd (HLA-A*02:03; [6]): 4.94 nM
Kd (HLA-A*02:06; [6]): 24.3 nM
Kd (HLA-A*02:02; [6]): 68.1 nM

Sequence: KIMASENSS
IC50 (HLA-A*02:01 [1]; [7]): ≥ 119000 nM

Sequence: KIYTLIYRQL
Kd (HLA-A*02:03; [8]): 1030 nM
Kd (HLA-A*02:06; [8]): 912 nM
Kd (HLA-A*02:02; [8]): 707 nM

Sequence: KLISEKETL
Kd (HLA-A*02:03; [8]): ≥ 24700 nM
Kd (HLA-A*02:06; [8]): 7650 nM
Kd (HLA-A*02:02; [8]): 841 nM

Sequence: KLRSSPPIPM
Kd (HLA-A*02:03; [8]): 134 nM
Kd (HLA-A*02:06; [8]): 2210 nM
Kd (HLA-A*02:02; [8]): 57.6 nM

Sequence: KQLESVMYL
Kd (HLA-A*02:01 [2]; [15]): 4.8 nM
Kd (HLA-A*69:01; [15]): ≥ 20000 nM

Sequence: KQPATLRKY
Kd (HLA-A*30:02; [4]): 416 nM

Sequence: KSGLFQFFV
Kd (HLA-A*02:03; [10]): 1550 nM
Kd (HLA-A*02:06; [10]): 8.06 nM
Kd (HLA-A*02:02; [10]): 23.1 nM

Sequence: KTSQVPKLL
IC50 (HLA-A*02:01 [1]; source organism: Variola virus): 23500 nM

Sequence: KVYNGIFVDT
Kd (HLA-A*02:03; [8]): 1440 nM
Kd (HLA-A*02:06; [8]): 16400 nM
Kd (HLA-A*02:02; [8]): 111 nM

Sequence: LALTDVEKRI
Kd (HLA-A*02:03; [8]): 403 nM
Kd (HLA-A*02:06; [8]): 2410 nM
Kd (HLA-A*02:02; [8]): 199 nM

Sequence: LAMGCYSQV
Kd (HLA-B*51:01; source organism: Dengue virus 4 Philippines/H241/1956): 140 nM

Sequence: LAYYNSCML
Kd (HLA-A*02:03; [8]): 15500 nM
Kd (HLA-A*02:06; [8]): ≥ 21500 nM
Kd (HLA-A*02:02; [8]): 12800 nM

Sequence: LCFWSAIFFT
Kd (HLA-A*02:03; [16]): ≥ 30300 nM
Kd (HLA-A*02:06; [16]): ≥ 34500 nM
Kd (HLA-A*02:02; [16]): 2600 nM

Sequence: LHPASAWTLY
Kd (HLA-A*30:02; [14]): 53.7 nM

Sequence: LLFLVLIML
Kd (HLA-A*02:03; [6]): 1370 nM
Kd (HLA-A*02:06; [6]): 573 nM
Kd (HLA-A*02:02; [6]): 154 nM

Kd (HLA-B*15:01; [13]): 478 nM
Sequence: LQKGGVIVY

Sequence: LTPKAQREI
IC50 (HLA-A*02:01 [1]; source organism: Variola virus): ≥ 71400 nM

Sequence: LVCKDHLAS
IC50 (HLA-A*02:01 [1]; [3]): ≥ 185000 nM

Sequence: MISRMLINRF
Kd (HLA-A*26:01; [4]): 8330 nM

Sequence: MLSEGRMNS
IC50 (HLA-A*02:01 [1]; source organism: Vaccinia virus): 6520 nM

Sequence: MLTNAISSRV
Kd (HLA-A*02:03; [8]): 0.105 nM
Kd (HLA-A*02:06; [8]): 224 nM
Kd (HLA-A*02:02; [8]): 53 nM

Sequence: MLWCKDGHV
Kd (HLA-A*02:03; [6]): 11 nM
Kd (HLA-A*02:06; [6]): 362 nM
Kd (HLA-A*02:02; [6]): 10.3 nM
